Results on 5 proteins are retold here after PMC2120109 (The Journal of Cell Biology, 1994).

Numbering of substitutions follows the chain as printed. Numbers in names are those of the source.

To fix the notation:
B1: NSF K266A mutant with His6 at the amino terminus and a myc epitope at the carboxy terminus (natural protein, UniProt P18708 1-744, looked up)
chain: MAGRSMQAARCPTDELSLSNCAVVSEKDYQSGQHVIVRTSPNHKYIFTLRTHPSVVPGSVAFSLPQRKWAGLSIGQEIEVALYSFDKAKQCIGTMTIEIDFLQKKNIDSNPYDTDKMAAEFIQQFNNQAFSVGQQLVFSFNDKLFGLLVKDIEAMDPSILKGEPASGKRQKIEVGLVVGNSQVAFEKAENSSLNLIGKAKTKENRQSIINPDWNFEKMGIGGLDKEFSDIFRRAFASRVFPPEIVEQMGCKHVKGILLYGPPGCGATLLARQIGKMLNAREPKVVNGPEILNKYVGESEANIRKLFADAEEEQRRLGANSGLHIIIFDEIDAICKQRGSMAGSTGVHDTVVNQLLSKIDGVEQLNNILVIGMTNRPDLIDEALLRPGRLEVKMEIGLPDEKGRLQILHIHTARMRGHQLLSADVDIKELAVETKNFSGAELEGLVRAAQSTAMNRHIKASTKVEVDMEKAESLQVTRGDFLASLENDIKPAFGTNQEDYASYIMNGIIKWGDPVTRVLDDGELLVQQTKNSDRTPLVSVLLEGPPHSGKTALAAKIAEESNFPFIKICSPDKMIGFSETAKCQAMKKIFDDAYKSQLSCVVVDDIERLLDYVPIGPRFSNLVLQALLVLLKKAPPQGRKLLIIGTTSRKDVLQEMEMLNAFSTTIHVPNIATGEQLLEALELLGNFKDKERTTIAQQVKGKKVWIGIKKLLMLIEMSLQMDPEYRVRKFLALLREEGASPLDFD
B2: NSF E329Q mutant (natural protein, UniProt P18708 1-744, looked up)
chain: B1 chain with A266K, E329Q
B3: NSF double hydrolysis mutant E329/D604Q (natural protein, UniProt P18708 1-744, looked up)
chain: B1 chain with A266K, E329Q, D604Q
B4: NSF D604Q mutant (natural protein, UniProt P18708 1-744, looked up)
chain: B1 chain with A266K, D604Q
B5: NSF K549A mutant (natural protein, UniProt P18708 1-744, looked up)
chain: B1 chain with A266K, K549A

This data set deals with the molecule itself. The experiment in a line: SEC.
For the protein B1, the binding result was “binds”.
Take B2: the binding result is given as “binds”.
For B3, the binding result was “binds”.
Consider B4, for which the binding result is “binds”.
For the protein B5, the binding result is reported as “binds”.
